# Reference: paper PMC4847750 (Nature structural & molecular biology, 2015)
# B1: Im7-L18A L19A L37A (mimic of unfolded Im7, Im7U) (natural protein, UniProt Q03708 1-87, looked up)
# chain: MELKNSISDYTEAEFVQAAKEIEKENVAATDDVLDVALEHFVKITEHPDGTDLIYYPSDNRDDSPEGIVKEIKEWRAANGKPGFKQG
# B2: Im7-L53A I54A (mimic of the Im7 folding intermediate, Im7I) (natural protein, UniProt Q03708 1-87, looked up)
# chain: MELKNSISDYTEAEFVQLLKEIEKENVAATDDVLDVLLEHFVKITEHPDGTDAAYYPSDNRDDSPEGIVKEIKEWRAANGKPGFKQG
# B3: Immunity protein 7, wild type (Im7-WT) (natural protein, UniProt Q03708 1-87, looked up)
# chain: MELKNSISDYTEAEFVQLLKEIEKENVAATDDVLDVLLEHFVKITEHPDGTDLIYYPSDNRDDSPEGIVKEIKEWRAANGKPGFKQG
# B4: Spy (WT Spy), ATP-independent periplasmic chaperone (natural protein, Escherichia coli, UniProt P77754 24-161, looked up)
# chain: ADTTTAAPADAKPMMHHKGKFGPHQDMMFKDLNLTDAQKQQIREIMKGQRDQMKRPPLEERRAMHDIIASDTFDKVKAEAQIAKMEEQRKANMLAHMETQNKIYNILTPEQKKQFNANFEKRLTERPAAKGKMPATAE
# Legend:
# [1] = molecular target: B4; test: stopped-flow fluorescence
# [2] = molecular target: B4; test: ITC
# [3] = molecular target: B2; test: ITC
# [4] = molecular target: B3; test: ITC
# [5] = molecular target: B1; test: ITC
binder,measurement,setting,value
B1,koff,[1],210 s⁻¹
same,kon,[1],1.3e+07 M⁻¹ s⁻¹
same,Kd,[2],10.4 µM
B2,Kd,[2],3.5 µM
B3,Kd,[2],20.5 µM
B4,stoichiometry N,[3],1 Spy dimer per Im7
same,stoichiometry N,[4],1 Spy dimer per Im7
same,stoichiometry N,[5],1 Spy dimer per Im7
